# Reference: PMC8131196, “Structure and dynamics of a mycobacterial type VII secretion system” (Nature, 2021)
# B1: EccB5 (natural protein)
# chain: MAEESRGQRGSGYGLGLSTRTQVTGYQFLARRTAMALTRWRVRMEIEPGRRQTLAVVASVSAALVICLGALLWSFISPSGQLNESPIIADRDSGALYVRVGDRLYPALNLASARLITGRPDNPHLVRSSQIATMPRGPLVGIPGAPSSFSPKSPPASSWLVCDTVATSSSIGSLQGVTVTVIDGTPDLTGHRQILSGSDAVVLRYGGDAWVIREGRRSRIEPTNRAVLLPLGLTPEQVSQARPMSRALFDALPVGPELLVPEVPNAGGPATFPGAPGPIGTVIVTPQISGPQQYSLVLGDGVQTLPPLVAQILQNAGSAGNTKPLTVEPSTLAKMPVVNRLDLSAYPDNPLEVVDIREHPSTCWWWERTAGENRARVRVVSGPTIPVAATEMNKVVSLVKADTSGRQADQVYFGPDHANFVAVTGNNPGAQTSESLWWVTDAGARFGVEDSKEARDALGLTLTPSLAPWVALRLLPQGPTLSRADALVEHDTLPMDMTPAELVVPK
# notes: also called inner EccB5; outer EccB5
# B2: EccC5 (natural protein)
# chain: MKRGFARPTPEKPPVIKPENIVLSTPLSIPPPEGKPWWLIVVGVVVVGLLGGMVAMVFASGSHVFGGIGSIFPLFMMVGIMMMMFRGMGGGQQQMSRPKLDAMRAQFMLMLDMLRETAQESADSMDANYRWFHPAPNTLAAAVGSPRMWERKPDGKDLNFGVVRVGVGMTRPEVTWGEPQNMPTDIELEPVTGKALQEFGRYQSVVYNLPKMVSLLVEPWYALVGEREQVLGLMRAIICQLAFSHGPDHVQMIVVSSDLDQWDWVKWLPHFGDSRRHDAAGNARMVYTSVREFAAEQAELFAGRGSFTPRHASSSAQTPTPHTVIIADVDDPQWEYVISAEGVDGVTFFDLTGSSMWTDIPERKLQFDKTGVIEALPRDRDTWMVIDDKAWFFALTDQVSIAEAEEFAQKLAQWRLAEAYEEIGQRVAHIGARDILSYYGIDDPGNIDFDSLWASRTDTMGRSRLRAPFGNRSDNGELLFLDMKSLDEGGDGPHGVMSGTTGSGKSTLVRTVIESLMLSHPPEELQFVLADLKGGSAVKPFAGVPHVSRIITDLEEDQALMERFLDALWGEIARRKAICDSAGVDDAKEYNSVRARMRARGQDMAPLPMLVVVIDEFYEWFRIMPTAVDVLDSIGRQGRAYWIHLMMASQTIESRAEKLMENMGYRLVLKARTAGAAQAAGVPNAVNLPAQAGLGYFRKSLEDIIRFQAEFLWRDYFQPGVSIDGEEAPALVHSIDYIRPQLFTNSFTPLEVSVGGPDIEPVVAQPNGEVLESDDIEGGEDEDEEGVRTPKVGTVIIDQLRKIKFEPYRLWQPPLTQPVAIDDLVNRFLGRPWHKEYGSACNLVFPIGIIDRPYKHDQPPWTVDTSGPGANVLILGAGGSGKTTALQTLICSAALTHTPQQVQFYCLAYSSTALTTVSRIPHVGEVAGPTDPYGVRRTVAELLALVRERKRSFLECGIASMEMFRRRKFGGEAGPVPDDGFGDVYLVIDNYRALAEENEVLIEQVNVIINQGPSFGVHVVVTADRESELRPPVRSGFGSRIELRLAAVEDAKLVRSRFAKDVPVKPGRGMVAVNYVRLDSDPQAGLHTLVARPALGSTPDNVFECDSVVAAVSRLTSAQAPPVRRLPARFGVEQVRELASRDTRQGVGAGGIAWAISELDLAPVYLNFAENSHLMVTGRRECGRTTTLATIMSEIGRLYAPGASSAPPPAPGRPSAQVWLVDPRRQLLTALGSDYVERFAYNLDGVVAMMGELAAALAGREPPPGLSAEELLSRSWWSGPEIFLIVDDIQQLPPGFDSPLHKAVPFVNRAADVGLHVIVTRTFGGWSSAGSDPMLRALHQANAPLLVMDADPDEGFIRGKMKGGPLPRGRGLLMAEDTGVFVQVAATEVRR
# notes: also called EccC5 ATPase; not shown: TwinStrep, C-terminal, kept
# B3: MycP5 protease (enzyme)
# chain: ISPPTIDPGALPPDGPPGPLAPMKQNAYCTEVGVLPGTDFQLQPKYMEMLNLNEAWQFGRGDGVKVAVIDTGVTPHPRLPRLIPGGDYVMAGGDGLSDCDAHGTLVASMIAAVPANGAVPLPSVPRRPVTIPTTETPPPPQTVTLSPVPPQTVTVIPAPPPEEGVPPGAPVPGPEPPPAPGPQPPAVDRGGGTVTVPSYSGGRKIAPIDNPRNPHPSAPSPALGPPPDAFSGIAPGVEIISIRQSSQAFGLKDPYTGDEDPQTAQKIDNVETMARAIVHAANMGASVINISDVMCMSARNVIDQRALGAAVHYAAVDKDAVIVAAAGDGSKKDCKQNPIFDPLQPDDPRAWNAVTTVVTPSWFHDYVLTVGAVDANGQPLSKMSIAGPWVSISAPGTDVVGLSPRDDGLINAIDGPDNSLLVPAGTSFSAAIVSGVAALVRAKFPELSAYQIINRLIHTARPPARGVDNQVGYGVVDPVAALTWDVPKGPAEPPKQLSAPLVVPQPPAPRDMVPIWVAAGGLAGALLIGGAVFGTATLMRRSRKQQ
# notes: also called mycosin
# What was measured:
# Experiment in all cases: cryo-EM structure
# EccC5 = target: B2; details: both partners purified
# MycP5 protease = target: B3; details: both partners purified
# cryo-EM structure = target: the molecule itself
Binder,binding result (EccC5),binding result (MycP5 protease),stoichiometry N (cryo-EM structure),binding result (cryo-EM structure)
B1,binds,binds,6,–
B2,–,–,–,binds
B3,–,–,3,–
